Test results from patent US20240216430A1 (ALLOGENE THERAPEUTICS, published 2024).
Values belong to the binder of their own block, whether it stands above or below them.

Biological target: T1, msCLDN18.1
T1 chain: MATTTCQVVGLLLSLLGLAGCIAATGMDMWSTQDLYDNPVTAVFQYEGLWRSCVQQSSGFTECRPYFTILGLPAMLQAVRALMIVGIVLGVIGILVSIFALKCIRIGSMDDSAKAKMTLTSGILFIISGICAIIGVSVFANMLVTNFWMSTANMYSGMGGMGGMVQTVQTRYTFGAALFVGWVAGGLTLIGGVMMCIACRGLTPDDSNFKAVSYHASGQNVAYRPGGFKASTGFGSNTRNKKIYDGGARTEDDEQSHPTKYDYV
Assay: flow cytometry on HEK-293T overexpressing mouse Claudin 18.1; 5 µg/mL scFv-hIgG2Fc, detected with PE anti-human IgG Fcγ
Experimental: The stained samples were analyzed by flow cytometry.

binding result: binds
B1: anti-Claudin 18.2 scFv-hIgG2Fc, clone 12H6 (Fc fusion)
chain: EVQLVESGGGLVQPGGSLRLSCAASGFTFSRYWMSWVRQAPGKGLEWVANIKHDGSEKYYVDSVKGRFTFSRDNAKTSLYLQMNSLRVEDTALYYCARYYGGPFDYWGQGTLVTVSSGGGGSGGGGSGGGGSGGGGSEIVLTQSPGTLSLSPGERATLSCRASQSVRSSYLAWYQQKPGQAPRLLIFGASSRATGIPDRFSGSGSGTDFTLTISRLEPEDFAVYYCQQFGSSLTFGGGTKVEIK
notes: linker and orientation in the Fc fusion are not restated; not shown: human IgG2 Fc (hIgG2Fc)

binding result: binds
B2: anti-Claudin 18.2 scFv-hIgG2Fc, clone 9G2 (Fc fusion)
chain: EVHLLESGGGLVQPWGSLTLSCAASGFTFSNYAMNWVRQAPGKGLEWVSGISGSGGSTYDADSVKGRFTISRDNSKNTLFLQMNSPRAEDTAVYYCATQGYSFGYFESWGQGTLVTVSSGGGGSGGGGSGGGGSGGGGSEIVLTQSPATLSLSPGERATLSCRASQNVNRYLAWYHQKPGQAPRLLIYDAFNRATGIPARFSGSGSGTDFTLTINSLEPEDFAVYYCQQRSDWPLTFGGGTKLEIK
notes: as for B1

binding result: binds
B3: anti-Claudin 18.2 scFv-hIgG2Fc, clone 2A10 (Fc fusion)
chain: QVQLQESGPGLVKPSETLSLTCTVSAGSISSYYWNWIRQPAGKGLEWIGRIYTSGSTNYNPSLRSRVTMSVDTSKNQFSLKLSSVTATDTAVYYCASASYTYFDSFDIWGQGTMVTVSSGGGGSGGGGSGGGGSGGGGSDIQLTQSPSFLSASVGDRVTITCRASQDIRNFLAWYQQKPGKAPKLLIYAASTLQSGVPSRFSGSGSGTEFALTVSSLQPEDFATYYCQQVNSYPRTFGQGTKVEIK
notes: as for B1
